Experimental data: paper PMC9598537

Assays:
[1] = target: AR9 chaperonin (gp228, product of gene 228 of bacteriophage AR9 Bacillus subtilis) (bacteriophage AR9 (Bacillus subtilis phage)); experiment: cryo-EM structure; purified apo gp228 in 50 mM Tris-HCl pH 7.5, 10 mM MgCl2, 100 mM KCl; single particle analysis, maps with no symmetry and with C7 symmetry; homology model flexibly fitted into the map
[2] = target: AR9 chaperonin (gp228, product of gene 228 of bacteriophage AR9 Bacillus subtilis) (bacteriophage AR9 (Bacillus subtilis phage)); experiment: SAXS; gp228 at 0.5 to 7.0 mg/mL, 20 °C, P12 beamline PETRA III; oligomeric state from the excluded volume Vp

Substance: AR9 chaperonin (gp228, product of gene 228 of bacteriophage AR9 Bacillus subtilis) (natural protein)
- stoichiometry N [1]: 7
- stoichiometry N [2]: 7
